# Measured values: publication PMC3029386, “Determinants Outside the DevR C-Terminal Domain Are Essential for Cooperativity and Robust Activation of Dormancy Genes in Mycobacterium tuberculosis”
# B1: P+S box (LH1/LH2), tgs1-Rv3131 promoter (dsDNA)
# DNA 1: CGAGTCGACAGAGCACGAAGGCTCGCCAGCGGAGGACCTTTGGCCCTGCGTCGACCGA
# DNA 2: TCGGTCGACGCAGGGCCAAAGGTCCTCCGCTGGCGAGCCTTCGTGCTCTGGTCGACTCG
# How the values were obtained:
# [1] = target: DevRC (DevR C-terminal domain) (Mycobacterium tuberculosis H37Rv, UniProt P9WMF9 141-217); test: EMSA; details: protein: recombinant; tags: N-terminal His6 (pET28a, pUS-DevRC); chain copies: 2
# Sequence of DevRC (DevR C-terminal domain) (P9WMF9 141-217): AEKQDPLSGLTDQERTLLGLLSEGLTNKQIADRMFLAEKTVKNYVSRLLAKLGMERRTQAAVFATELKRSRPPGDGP
# DevR (full-length) = DevR (full-length) (Mycobacterium tuberculosis, UniProt P9WMF9 1-217); test: EMSA; details: protein: recombinant; tags: N-terminal His6 (pAV-DevR); chain copies: 2
# Sequence of DevR (full-length) (P9WMF9 whole entry): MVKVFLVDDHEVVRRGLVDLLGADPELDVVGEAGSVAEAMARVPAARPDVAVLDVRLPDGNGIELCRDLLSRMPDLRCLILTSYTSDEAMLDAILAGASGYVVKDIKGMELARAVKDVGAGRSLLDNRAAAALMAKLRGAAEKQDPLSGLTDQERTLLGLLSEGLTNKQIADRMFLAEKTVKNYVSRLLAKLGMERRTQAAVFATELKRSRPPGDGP
binder,measurement,setting,value
B1,binding result,[1],binds
same,binding result,DevR (full-length),binds
